Target: T1, KEAP1 (microscale thermophoresis assay) (UniProt Q14145 1-624)
T1 construct: KEAP1 as used in the microscale thermophoresis assay; May be the same as GST-KEAP1-WT
Assay: MST; microscale thermophoresis; conditions in the Supplemental Methods, not shown

T1 sequence (Q14145 whole entry): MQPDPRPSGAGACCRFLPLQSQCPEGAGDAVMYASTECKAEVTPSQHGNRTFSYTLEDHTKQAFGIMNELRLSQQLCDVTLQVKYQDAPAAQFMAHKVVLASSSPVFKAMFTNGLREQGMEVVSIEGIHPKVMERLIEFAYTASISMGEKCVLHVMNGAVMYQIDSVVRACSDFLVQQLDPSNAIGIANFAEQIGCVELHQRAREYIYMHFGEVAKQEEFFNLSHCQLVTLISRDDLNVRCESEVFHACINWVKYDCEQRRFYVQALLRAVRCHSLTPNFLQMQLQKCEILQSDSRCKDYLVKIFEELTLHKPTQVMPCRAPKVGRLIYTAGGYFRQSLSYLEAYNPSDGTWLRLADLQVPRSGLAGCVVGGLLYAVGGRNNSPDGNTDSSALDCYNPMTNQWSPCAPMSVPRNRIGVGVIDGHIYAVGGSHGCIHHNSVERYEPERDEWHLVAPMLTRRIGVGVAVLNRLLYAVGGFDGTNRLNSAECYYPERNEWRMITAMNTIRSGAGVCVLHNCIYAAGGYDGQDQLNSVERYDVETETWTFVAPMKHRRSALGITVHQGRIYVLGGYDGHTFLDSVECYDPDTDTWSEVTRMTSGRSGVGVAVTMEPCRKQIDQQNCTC

Kd: 5.28 µM
B1: truncated NRF2 (NRF2^ΔDLG) (natural protein)
chain: MMDLELPPPGLPSQQDMDLIDILWRQDIVSREVFDFSQRRKEYELEKQKKLEKERQEQLQKEQEKAFFAQLQLDEETGEFLPIQPAQHIQSETSGSANYSQVAHIPKSDALYFDDCMQLLAQTFPFVDDNEVSSATFQSLVPDIPGHIESPVFIATNQAQSPETSVAQVAPVDLDGMQQDIEQVWEELLSIPELQCLNIENDKLVETTMVPSPEAKLTEVDNYHFYSSIPSMEKEVGNCSPHFLNAFEDSFSSILSTEDPNQLTVNSLNSDATVNTDFGDEFYSAFIAEPSISNSMPSPATLSHSLSELLNGPIDVSDLSLCKAFNQNHPESTAEFNDSDSGISLNTSPSVASPEHSVESSSYGDTLLGLSDSEVEELDSAPGSVKQNGPKTPVHSSGDMVQPLSPSQGQSTHVHDAQCENTPEKELPVSPGHRKTPFTKDKHSSRLEAHLTRDELRAKALHIPFPVEKIINLPVVDFNEMMSKEQFNEAQLALIRDIRRRGKNKVAAQNCRKRKLENIVELEQDLDHLKDEKEKLLKEKGENDKSLHLLKKQLSTLYLEVFSMLRDEDGKPYSPSEYSLQQTRDGNVFLVPKSKKPDVKKN

Reference: paper PMC9888386 (The Journal of Clinical Investigation, 2023)
